{
  "source": "paper PMC7312448",
  "target": "MavC (wild type) (L. pneumophila)",
  "assay": "SEC",
  "data": [
    {"substance": "MavC (wild type) (enzyme)", "values": [
      {"measurement": "stoichiometry N", "result": 2}
    ]}
  ]
}
